Results as given in article PMC11457862.

T1: biotinylated human IL-2Rβ ectodomain (amino acids 1-214) (human) (UniProt P14784)
T1 sequence (chain, biotin on the biotin acceptor peptide (BirA ligase)): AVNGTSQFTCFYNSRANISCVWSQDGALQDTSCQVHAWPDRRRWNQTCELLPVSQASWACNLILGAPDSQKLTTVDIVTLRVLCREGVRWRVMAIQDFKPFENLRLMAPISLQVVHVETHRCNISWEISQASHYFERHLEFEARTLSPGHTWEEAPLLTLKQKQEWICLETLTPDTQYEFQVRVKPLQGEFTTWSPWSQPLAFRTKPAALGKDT


Legend:
[1] = biological target: human IL-2 (amino acids 1-133), soluble, P60568; assay: yeast display titration; conditions: chain shown with the change
[2] = biological target: human IL-2 (amino acids 1-133), soluble, P60568; assay: yeast display competition (IL-2 binding in the presence of soluble IL-2Rα competitor); conditions: chain shown with the change; IL-2 5 nM; IC50 is the concentration of soluble IL-2Rα competitor (Dm27)
[3] = biological target: biotinylated human IL-2Rα ectodomain (amino acids 1-217) (human); assay: BLI; same set-up as a1; equilibrium titration of the response at the end of the association phase, first-order fit (Figures 2 and 3, Supplemental Table 1)
[4] = biological target: T1, biotinylated human IL-2Rβ ectodomain (amino acids 1-214) (human); assay: as above
[5] = biological target: T1, biotinylated human IL-2Rβ ectodomain (amino acids 1-214) (human); assay: BLI; same set-up as a3; equilibrium titration, first-order fit (Supplemental Figure 4A-C, Supplemental Table 4)

EC50 [1]	IC50 [2]	Kd [3]	Kd [4]	Kd [5]	Binder
0.4 nM	1120 nM				yeast-displayed 602 scFv T101S; F225S; G227D (protein) chain 1: EVQLQESGPGLVAPSQSLSITCTVSGFSLTNYDISWIRQPPGKGLEWLGVIWTGGGTNYNSGFMSRLSITKDNSKSQVFLKMNSLQTDDTAIYYCVRQGRSPYWGQGTLVTVSA chain 2: DIQVTQSPSSLSVSLGDRVTITCKASKDIYNRLAWYQQKPGNAPRLLISGATSLETGVPSRFSGSGSGKDYTLTITSLQTEDVATYYCQQSWDTPYTFGGGTKLEIK
		> 2000 nM	> 2000 nM	> 2000 nM	anti-human IL-2 antibody 602 (MAB602), recombinant mouse IgG2a kappa (antibody, V domains shown) VH: EVQLQESGPGLVAPSQSLSITCTVSGFSLTNYDISWIRQPPGKGLEWLGVIWTGGGTNYNSGFMSRLSITKDNSKSQVFLKMNSLQTDDTAIYYCVRQGRTPYWGQGTLVTVSA VL: DIQVTQSPSSLSVSLGDRVTITCKASKDIYNRLAWYQQKPGNAPRLLISGATSLETGVPSRFSGSGSGKDYTLTITSLQTEDVATYYCQQFWGTPYTFGGGTKLEIK
